By EC50 (read off the curve) is commonly meant the concentration giving half of the maximal effect. Higher therefore signals a need for much substance. For orientation: Kd means the concentration at which binding is half-saturated. The low end stands for tighter binding, the high end for weaker binding. For orientation: koff means the rate constant with which the complex falls apart. As usually defined, the kon is the second-order rate constant of association. Low readings indicate slow association, high ones fast association.

Changes are numbered by the printed parent chain.

Test [1] has as its target T1, human ROR1 on cells (HEK293T-hROR1, PANC-1, A549) (human, UniProt Q01973 30-937).
T1 construct: whole, on cells; one molecule for the three cell lines; also called huROR1; cell surface ROR1
The test can be described thus: flow cytometry, PANC-1 cells. The method, then:
(§1) In brief, anti-ROR1 antibodies were serially diluted in staining buffer (PBS containing 2% FBS). Antibody solution was incubated with 1×10⁵ cells at 4° C. for 1 hour. […] After 1-hour incubation at 4° C., cells were washed twice with staining buffer and subjected to flow cytometry. PR000374 (Bench marker 1) and non-relevant IgG isotype control (Crownbio) were used as positive and negative controls, respectively.

Test [2] has as its target T1, human ROR1 on cells (HEK293T-hROR1, …). The test can be described thus: flow cytometry on PANC-1 cells, MFI (FITC-A Median) [continued) C]. As to the method: (§2) Binding of recombinant anti-ROR1 antibodies to human or cynomolgus ROR1-overexpressing cells was tested by flow cytometry. In this example, ROR1-expressing cell lines are HEK293T cell lines that had been transfected to express human ROR1 on the surface (HEK293T-hu ROR1, KYINNO BIOTECHNOLOGY CO., LTD, Catalog #KC-1018), CHO-K1 cell lines that had been transfected to express cynomolgus ROR1 (CHOK1-cyno ROR1), PANC-1 (ATCC, catalog: CRL-1469) or A549 cell lines (Shanghai Institute of Biochemistry and Cell Biology, Chinese Academy of Sciences).
as §1
Background: In flow cytometry, cells or beads pass a laser one at a time.

Test [3] concerns the target T2, cynomolgus ROR1 on CHO-K1-cynoROR1 cells (cynomolgus monkey, UniProt A0A2K5WTX7 30-937).
T2 construct: whole, on cells
As to the kind of experiment: flow cytometry, CHO-K1-cynoROR1 cells.

For test [4], the target named is T1, human ROR1 on cells (HEK293T-hROR1, …). As to the kind of experiment: flow cytometry on PANC-1 cells, MFI (FITC-A Median). The method, then: as §2, §1
Test [5] concerns the target T2, cynomolgus ROR1 on CHO-K1-cynoROR1 cells. As to the kind of experiment: flow cytometry on CHOK1-cynoROR1 cells, MFI (APC-A Median) [middle panel, letter not given]. The method, then: as §2, §1
Test [6] addresses T1, human ROR1 on cells (HEK293T-hROR1, …). The test can be described thus: flow cytometry, PANC-1 cells. A digest of the protocol: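 Anti-ROR1 antibodies, serially diluted in PBS with 2% FBS, were incubated with 1×10⁵ PANC-1 cells for 1 hour at 4° C. A further 1-hour incubation at 4° C followed, then two washes and flow cytometry. A benchmark anti-ROR1 antibody and an isotype IgG served as positive and negative controls.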
The source holds these as a separate data set.

Test [7] deals with T3, hu-ROR2-ECD-his (Acrobiosystems RO2-H52E5) (human, UniProt Q01974 34-403).
T3 construct: extracellular domain; bought protein; also called Human ROR2 his-tagged protein; Human ROR2, His Tag
T3 sequence (Q01974 34-403): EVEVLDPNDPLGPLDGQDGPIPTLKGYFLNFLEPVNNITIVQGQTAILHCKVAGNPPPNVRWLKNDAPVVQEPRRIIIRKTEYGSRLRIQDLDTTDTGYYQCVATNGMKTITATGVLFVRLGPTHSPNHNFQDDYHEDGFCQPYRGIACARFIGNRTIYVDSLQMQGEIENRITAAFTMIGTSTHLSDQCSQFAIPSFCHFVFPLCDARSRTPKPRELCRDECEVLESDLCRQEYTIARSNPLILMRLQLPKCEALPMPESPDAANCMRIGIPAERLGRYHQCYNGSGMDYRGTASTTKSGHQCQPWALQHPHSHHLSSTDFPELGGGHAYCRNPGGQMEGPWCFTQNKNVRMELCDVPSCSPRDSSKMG
As to the kind of experiment: BLI, antibody on AHC sensor, ROR2-His in solution. The method, then:
In the example, binding kinetics of anti-ROR1 antibodies to soluble ROR2 protein were analyzed by using Bio-Layer Interferometry (BLI) analysis on Fortebio Octet Red384 instrument (Fortebio). […] The captured biosensors were then dipped in wells containing 2-fold serial dilutions of antigen proteins to detect association signals, followed by dissociation steps in wells containing 1× kinetic buffer. Human ROR2 his-tagged protein (Acrobiosystems, #RO2-H52E5) was diluted from 600 nM to 37.5 nM; the association phase was 180 seconds, and the dissociation phase was 180 seconds. The sensorgrams were recorded and the reference signals were subtracted before curve fitting using ForteBio Data Analysis 11.0 software. Association rates (kₒₙ) and dissociation rates (kdis) were calculated using a simple one-to-one Langmuir binding model. The equilibrium dissociation constant (KD) was calculated as the ratio of kdis/kₒₙ.
On the technique in general: Biolayer interferometry detects binding as a change in optical thickness at a sensor tip.

The target of test [8] is T4, Human ROR1-ECD-his (Acro Biosystems RO1-H522y) (human, UniProt Q01973 30-406).
T4 construct: extracellular domain; bought protein; also called hROR1-ECD-his; hu-ROR1-ECD-his
T4 sequence (Q01973 30-406): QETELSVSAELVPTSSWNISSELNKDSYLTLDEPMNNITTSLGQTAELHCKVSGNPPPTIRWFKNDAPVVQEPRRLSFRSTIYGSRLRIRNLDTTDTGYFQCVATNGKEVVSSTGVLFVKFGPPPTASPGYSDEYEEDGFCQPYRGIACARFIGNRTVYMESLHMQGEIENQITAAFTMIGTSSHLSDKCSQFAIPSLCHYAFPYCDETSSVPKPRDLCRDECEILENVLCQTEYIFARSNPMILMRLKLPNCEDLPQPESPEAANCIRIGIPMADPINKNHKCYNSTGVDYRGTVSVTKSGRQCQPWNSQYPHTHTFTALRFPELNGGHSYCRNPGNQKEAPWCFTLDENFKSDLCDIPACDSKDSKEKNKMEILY
As to the kind of experiment: BLI, antibody on AHC sensor, ROR1-His 5-80 nM in solution. The method, then: The captured biosensors were then dipped in wells containing 2-fold serial dilutions of antigen proteins to detect association signals, followed by dissociation steps in wells containing 1× kinetic buffer. Human ROR1 hits-tagged protein (Acrobiosystems, #RO1-H522y) was diluted from 80 nM to 5 nM; the association phase was 180 seconds, and the dissociation phase was 600 seconds. The sensorgrams were recorded and the reference signals were subtracted before curve fitting using ForteBio Data Analysis 11.0 software. Association rates (kₒₙ) and dissociation rates (kdis) were calculated using a simple one-to-one Langmuir binding model. The equilibrium dissociation constant (KD) was calculated as the ratio of kdis/kₒₙ.

Test [9] has as its target T1, human ROR1 on cells (HEK293T-hROR1, …). As to the kind of experiment: flow cytometry on PANC-1 cells, MFI (APC-A Median). As to the method:
as §2, §1

In test [10] the target is T4, Human ROR1-ECD-his (Acro Biosystems …). The test can be described thus: BLI in-tandem, row = 1st Ab; competitor (2nd Ab): PR000374. The text has this:
(§3) To determine if anti-ROR1 antibodies bind to human ROR1 on different or approximate binding epitopes, the ForteBio Octet® RED96e platform was used to perform epitope competition experiments on the anti-ROR1 antibodies. Human ROR1 protein (Acrobiosystems, #RO1-H522y) was biotinylated and then captured onto SA biosensors (ForteBio, #18-5020) to reach loading level of 0.3-0.4 nm. The in-tandem competition assay format was applied and it contains two association steps. Firstly, the antigen-loaded biosensors bind to each antibody (a.k.a, First antibody, 1st Ab) with a saturating concentration of 200 nM for 180 seconds to reach equilibrium and then secondly bind to the competing antibodies (a.k.a, Second antibody, 2nd Ab) of 200 nM for 180 seconds. The second binding signals were recorded as the 100% signal of each antibody when the first antibodies were replaced by kinetics buffer. All the binding data were analyzed using ForteBio Data Analysis 11.0 software. The inhibition rate is calculated by the following formula: […]

For test [11] the target is unchanged. As to the kind of experiment: BLI in-tandem, row = 1st Ab; competitor (2nd Ab): PR005338.
Text: as §3

Test [12] has the same target. As to the kind of experiment: BLI in-tandem, row = 1st Ab; competitor (2nd Ab): PR005340.
Text: as §3

Test [13] has the same target. As to the kind of experiment: BLI in-tandem, row = 1st Ab; competitor (2nd Ab): PR007417.
Text: as §3

Test [14] has the same target. As to the kind of experiment: BLI in-tandem, row = 1st Ab; competitor (2nd Ab): PR007424.
Text: as §3

In test [15] the target is T1, human ROR1 on cells (HEK293T-hROR1, …). As to the kind of experiment: flow cytometry on PANC-1 cells, MFI (Median-APC) [top panel].
For test [16], the target named is T2, cynomolgus ROR1 on CHO-K1-cynoROR1 cells. The test can be described thus: flow cytometry on CHOK1-cynoROR1 cells, MFI (APC-A Median) [top panel]. The method, then:
as §2, §1

The target of test [17] is T1, human ROR1 on cells (HEK293T-hROR1, …). The test can be described thus: flow cytometry on PANC-1 cells, MFI (Median-APC) [bottom panel, letter not given].
For test [18] the target is unchanged. The test can be described thus: flow cytometry on PANC-1 cells, MFI (Median-APC) [middle panel, letter not given].

T1 sequence (Q01973 30-937): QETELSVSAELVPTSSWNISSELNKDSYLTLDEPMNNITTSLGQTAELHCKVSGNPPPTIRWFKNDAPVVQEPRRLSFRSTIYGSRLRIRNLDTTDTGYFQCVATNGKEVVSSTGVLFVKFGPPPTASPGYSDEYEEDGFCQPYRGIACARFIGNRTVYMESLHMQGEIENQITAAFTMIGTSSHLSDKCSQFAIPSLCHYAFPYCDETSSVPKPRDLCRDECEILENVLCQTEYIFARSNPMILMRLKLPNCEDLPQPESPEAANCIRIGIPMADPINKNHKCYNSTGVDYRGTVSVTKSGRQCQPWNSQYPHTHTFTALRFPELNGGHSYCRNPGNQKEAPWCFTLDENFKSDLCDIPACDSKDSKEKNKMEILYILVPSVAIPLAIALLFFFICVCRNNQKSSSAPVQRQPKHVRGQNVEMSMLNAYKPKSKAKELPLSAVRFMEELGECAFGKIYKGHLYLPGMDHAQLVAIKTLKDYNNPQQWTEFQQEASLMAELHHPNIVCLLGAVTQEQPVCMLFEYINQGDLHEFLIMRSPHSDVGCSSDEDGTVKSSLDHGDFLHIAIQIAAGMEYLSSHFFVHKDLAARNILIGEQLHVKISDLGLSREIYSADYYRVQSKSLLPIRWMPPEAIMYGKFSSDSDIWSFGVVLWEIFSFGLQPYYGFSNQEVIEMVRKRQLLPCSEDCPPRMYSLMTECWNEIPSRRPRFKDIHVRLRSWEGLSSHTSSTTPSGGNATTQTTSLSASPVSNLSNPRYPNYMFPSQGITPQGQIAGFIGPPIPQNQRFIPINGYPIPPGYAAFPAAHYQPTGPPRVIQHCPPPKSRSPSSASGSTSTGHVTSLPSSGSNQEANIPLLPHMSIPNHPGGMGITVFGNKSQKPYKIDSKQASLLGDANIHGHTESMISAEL

B1: PR005352 (antibody, human IgG1, V domains shown)
VH: EVQLVESGGGLVKPGGSLRLSCAASGFTFSDYYMSWIRQAPGKGLEWISYISSSGGSIYYADSVKGRFTISRDNAKNSLYLQMNRLRAEDTALYYCARTPPSSNNWYEDFDYWGQGALVTVSS
notes: HCAb (heavy chain-only, human IgG1 Fc), no light chain
In test [1], B1 showed a Max of 23300. In test [2], the half-maximal effective concentration (EC50 (read off the curve)) is roughly 9 nM.

B2: PR005344 (antibody, human IgG1, V domains shown)
VH: EVQLVESGGGLVKPGGSLRLSCAASGFTFSDYYMSWIRQAPGKGLEWISYISNSSSSISYANSVKGRFTVSRDNAKNSLYLQMNSLRAEDTALYYCARSPRGAFYEDFDYWGQGTLVTVSS
notes: as for B1
For B2, the Max in [1] was 12400; in test [3] it was 30700. In addition, the figures for the “EC50 (read off the curve)” value in [4] and in [5] were roughly 20 nM and roughly 10 nM, respectively.

B3: PR005349 (antibody, human IgG1, V domains shown)
VH: B2 VH with G102S
notes: as for B1
B3 gave a Max in [1] of 27100. Also, in test [2], the “EC50 (read off the curve)” value was roughly 10 nM.

B4: PR005340 (antibody, human IgG1, V domains shown)
VH: EVQLVESGGGLVKPGGSLRLSCAASGFTFSDYYMSWIRQAPGKGLEWISYISSSGSTIHYADSVKGRFTISRDNAKNSLYLQMNSLRAEDTAIYYCARDIPSSSSDWVSLQFDYWGQGTLVTVSS
notes: as for B1
In the case of B4, the Max stood at 17500 in test [1] and 36400 in test [3]. Moreover, the TOP in [6] turned out to be 84900. Further, in test [7], the binding result is recorded as “no binding (tested: 37.5-600 nM)”. Moreover, the Kd in test [8] was 1.2 nM. The koff in test [8] is 0.000171 s⁻¹. This molecule returned a kon in test [8] of 143000 M⁻¹ s⁻¹. For the same molecule, the “EC50 (read off the curve)” value in test [9] was roughly 2 nM; in [15], roughly 3 nM; in test [16] it was roughly 3 nM; in test [17] it was roughly 2 nM; in [18], roughly 2 nM. Moreover, the “Inhibition (%)” value in test [10] is -0.17%; in [11], 106%; in [12], 109%; in test [13] it was 109%; in test [14], 106%.

B5: PR007424 (antibody, V domains shown)
VH: B4 VH with S52D, S56R, T57P, I58L, H59A, I100M
notes: bivalent form (HCAb) variant of PR005340, no light chain
B5 displayed a TOP in test [6] of 70800. Besides, the binding result in [7] is recorded as “no binding (tested: 37.5-600 nM)”. This molecule also had a Kd in test [8] of 1.01 nM. The same molecule gave a dissociation rate constant (koff) in [8] of 0.000284 s⁻¹. Moreover, in test [8], the kon is 281000 M⁻¹ s⁻¹. The “Inhibition (%)” value in test [10] was -0.73%; in test [11] it was 108%; in [12] it was 111%; in test [13], 111%; in [14] it was 107%. Moreover, the concentration for a half-maximal effect (EC50 (read off the curve)) in [17] was roughly 0.6 nM.

B6: PR005338 (antibody, human IgG1, V domains shown)
VH: B4 VH with S56T, A88T, I93V, I100A, S104N
notes: as for B1
With B6, the Max in test [1] is 12700; in test [3], 33300. The binding result in test [7] is “no binding (tested: 37.5-600 nM)”. The Kd in test [8] came out at 2.4 nM. The molecule further had a koff in test [8] of 0.000316 s⁻¹. Moreover, the kon in test [8] amounted to 132000 M⁻¹ s⁻¹. The “Inhibition (%)” value in [10] was -3.02%; in [11] it was 104%; in test [12], 108%; in [13], 108%; in test [14], 102%. For the same molecule, the “EC50 (read off the curve)” value in test [4] was roughly 7 nM; in [5] it was roughly 8 nM.
